Substitutions are numbered along the chain they refer to.
Tests used:
human IFNAR-1 on cells = target: T1, human IFNAR-1 on cells (human, UniProt P17181 28-557); assay: cell-based or functional assay
T1 sequence (looked up): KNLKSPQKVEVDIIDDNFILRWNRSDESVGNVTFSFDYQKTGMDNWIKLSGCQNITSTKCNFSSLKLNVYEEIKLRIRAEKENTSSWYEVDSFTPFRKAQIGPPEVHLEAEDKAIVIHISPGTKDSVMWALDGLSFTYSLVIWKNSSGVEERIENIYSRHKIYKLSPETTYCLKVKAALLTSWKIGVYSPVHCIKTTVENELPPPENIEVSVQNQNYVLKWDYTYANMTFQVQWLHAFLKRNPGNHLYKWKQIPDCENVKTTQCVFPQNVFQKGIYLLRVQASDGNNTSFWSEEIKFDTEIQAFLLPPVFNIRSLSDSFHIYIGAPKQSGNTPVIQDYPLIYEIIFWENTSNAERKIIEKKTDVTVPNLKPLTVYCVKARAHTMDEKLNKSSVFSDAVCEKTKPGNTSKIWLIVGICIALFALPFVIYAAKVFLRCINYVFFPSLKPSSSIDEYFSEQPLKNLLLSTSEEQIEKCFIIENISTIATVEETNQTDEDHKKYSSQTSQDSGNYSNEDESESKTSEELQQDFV

[1] = target: T2, recombinant His-tagged human IFNAR-1-ECD protein (human, UniProt P17181 28-436); assay: ELISA, coated His-tagged IFNAR-1
T2 construct: extracellular domain; the Biacore text says His-tagged human IFNAR-1-ECD; also called His-tagged IFNAR-1; hIFNAR-1 protein; not shown: His tag
T2 sequence (looked up): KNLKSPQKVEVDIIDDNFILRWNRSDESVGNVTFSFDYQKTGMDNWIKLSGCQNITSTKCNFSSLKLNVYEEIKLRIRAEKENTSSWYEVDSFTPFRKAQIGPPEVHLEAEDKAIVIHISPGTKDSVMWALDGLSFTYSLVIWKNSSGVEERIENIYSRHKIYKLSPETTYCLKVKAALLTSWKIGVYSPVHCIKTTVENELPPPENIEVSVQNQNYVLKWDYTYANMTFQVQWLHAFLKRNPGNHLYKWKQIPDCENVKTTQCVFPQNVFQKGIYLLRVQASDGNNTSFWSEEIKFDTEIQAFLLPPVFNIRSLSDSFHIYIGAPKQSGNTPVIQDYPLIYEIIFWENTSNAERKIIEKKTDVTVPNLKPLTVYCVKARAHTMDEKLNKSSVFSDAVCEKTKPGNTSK
Description: This example tested the binding properties of the anti-IFNAR-1 mouse antibodies to the human IFNAR-1 proteins by ELISA assay. In short, His-tagged IFNAR-1 was coated at 0.5 μg/ml overnight and then blocked by 5% BSA in PBS. Serial diluted anti-IFNAR-1 antibodies were incubated with the coated antigen for 1 h at room temperature. The resulting plates were washed with PBS/T and incubated with goat anti-mouse IgG-HRP for 1 h at room temperature. The plates were developed with TMB substrate and analyzed by spectrophotometer at OD 450-630 nm.

[2] = target: T3, human IFNAR-1 protein (form not stated) (human, UniProt P17181 28-436, limits assumed); assay: affinity ranking of expressed humanized 485G10 IgGs (method not named)
T3 construct: bispecific ELISA
T3 sequence (looked up): T2 sequence (looked up)

B1: 260H8 (antibody, V domains shown)
VH: EVQLQESGPGLAKPSQTLSLTCSVTGYSITSDYWNWIRKFPGNKLEYMGYISYSGSIYYNPSLKSRISITRDTSKNQYYLQLNSVTNEDTATYYCARSGGMYYFDYWGQGTTLTVSS
VL: DIQMTQSPASLSASVGETVTITCRASGNIHNYLAWYQQKQGKSPQLLVYNAKTLEDGVPSRFSGSGSGTQYSLKINSLQPEDFGSYYCQHFWSIPPTFGSGTKLEIK
notes: Hybridoma-derived monoclonal antibody
With B1 the “EC50 (nM), inhibition of IFNα2b-induced SEAP reporter in HEK-Blue IFNα/β cells” value (“EC50 (nM), inhibition” below) (human IFNAR-1 on cells) was 5.07 nM and the EC50 [1] was 0.055 nM.

B2: 268E9 (antibody, V domains shown)
VH: B1 VH with D72A
VL: B1 VL
notes: as for B1
For B2, the “EC50 (nM), inhibition” value (human IFNAR-1 on cells) was 3.87 nM and the EC50 [1] was 0.088 nM.

B3: 269A7 (antibody, V domains shown)
VH: B1 VH with S56T
VL: B1 VL
notes: as for B1
With B3 the “EC50 (nM), inhibition” value (human IFNAR-1 on cells) was 6.71 nM and the EC50 [1] was 0.476 nM.

B4: 293H10 (antibody, V domains shown)
VH: B1 VH with S56N, I57T, Y58D, I67F, Y78F, N87T, G99E, Y103F
VL: B1 VL with T20S, Q37H, E55A, I94T
notes: as for B1
For B4, the “EC50 (nM), inhibition” value (human IFNAR-1 on cells) was 1.28 nM and the EC50 [1] was 0.097 nM.

B5: 485G10 humanized VH0 + VL1 (antibody, V domains shown)
VH: QVQLVQSGAEVKKPGASVKVSCKASGFNIKDYYIHWVRQAPGQGLEWMGRIDPEDAETKYAPKFQGRVTMTRDTSISTAYMELSRLRSDDTVVYYCARYHGYWALDYWGQGTLVTVSS
VL: DIQMTQSPSSLSASVGDRVTITCKTSQNVGTNVAWFQQKPGKAPKSLIYSTSYRYSGVPSRFSGSGSGTDFTLTISSLQPEDFATYYCHQYFSYPYTFGPGTKVDIK
notes: Humanized IgG expressed in HEK293; also called VH0 + VL1 (485G10)
For B5, the Kd [2] was 9.33 nM, the koff [2] was 0.00475 s⁻¹ and the kon [2] was 509000 M⁻¹ s⁻¹.

B6: 485G10 humanized VH0 + VL2 (antibody, V domains shown)
VH: B5 VH
VL: B5 VL with A13T, F36Y, S46P
notes: Humanized IgG expressed in HEK293; also called VH0 + VL2 (485G10)
With B6 the Kd [2] was 1.57 nM, the koff [2] was 0.000439 s⁻¹ and the kon [2] was 279000 M⁻¹ s⁻¹.

B7: 485G10 humanized VH0 + VL3 (antibody, V domains shown)
VH: B5 VH
VL: B5 VL with A13T, F36Y, S46P, L78V, V104L
notes: Humanized IgG expressed in HEK293; also called VH0 + VL3 (485G10)
Binder B7 has a Kd [2] of 1.07 nM, a koff [2] of 0.000316 s⁻¹ and a kon [2] of 294000 M⁻¹ s⁻¹.

B8: 485G10 humanized VH0 + VL4 (antibody, V domains shown)
VH: B5 VH
VL: B5 VL with A13T, I21V, F36Y, S46P, L78V, V104L
notes: Humanized IgG expressed in HEK293; also called VH0 + VL4 (485G10)
B8 was tested, and the Kd [2] was 1.25 nM, the koff [2] was 0.000318 s⁻¹ and the kon [2] was 255000 M⁻¹ s⁻¹.

B9: 485G10 humanized VH1 + VL1 (antibody, V domains shown)
VH: B5 VH with R72A
VL: B5 VL
notes: Humanized IgG expressed in HEK293; also called VH1 + VL1 (485G10)
B9 showed a Kd [2] of 3.14 nM, a koff [2] of 0.00103 s⁻¹ and a kon [2] of 328000 M⁻¹ s⁻¹.

B10: 485G10 humanized VH2 + VL1 (antibody, V domains shown)
VH: B5 VH with V20L, R38K, M48I, R72A, A97G
VL: B5 VL
notes: Humanized IgG expressed in HEK293; also called VH2 + VL1 (485G10)
Binder B10 has a Kd [2] of 20.5 nM, a koff [2] of 0.00663 s⁻¹ and a kon [2] of 323000 M⁻¹ s⁻¹.

B11: 485G10 humanized VH2 + VL2 (antibody, V domains shown)
VH: B5 VH with V20L, R38K, M48I, R72A, A97G
VL: B5 VL with A13T, F36Y, S46P
notes: Humanized IgG expressed in HEK293; also called VH2 + VL2 (485G10)
Work on B11 yielded a Kd [2] of 0.906 nM, a koff [2] of 0.000298 s⁻¹ and a kon [2] of 329000 M⁻¹ s⁻¹.

B12: 485G10 humanized VH2 + VL4 (antibody, V domains shown)
VH: B5 VH with V20L, R38K, M48I, R72A, A97G
VL: B5 VL with A13T, I21V, F36Y, S46P, L78V, V104L
notes: Humanized IgG expressed in HEK293; also called VH2 + VL4 (485G10)
B12 showed a Kd [2] of 0.99 nM, a koff [2] of 0.0003 s⁻¹ and a kon [2] of 303000 M⁻¹ s⁻¹.

B13: 485G10 humanized VH3 + VL2 (antibody, V domains shown)
VH: B5 VH with V20L, A24G, R38K, M48I, V68A, M70I, R72A, M81L, A97G
VL: B5 VL with A13T, F36Y, S46P
notes: Humanized IgG expressed in HEK293; also called VH3 + VL2 (485G10)
In the case of B13, the Kd [2] is reported as 0.864 nM, the koff [2] is reported as 0.000264 s⁻¹ and the kon [2] is reported as 306000 M⁻¹ s⁻¹.

B14: 485G10 humanized VH3 + VL3 (antibody, V domains shown)
VH: B5 VH with V20L, A24G, R38K, M48I, V68A, M70I, R72A, M81L, A97G
VL: B5 VL with A13T, F36Y, S46P, L78V, V104L
notes: Humanized IgG expressed in HEK293; also called VH3 + VL3 (485G10)
B14 showed a Kd [2] of 0.841 nM, a koff [2] of 0.000279 s⁻¹ and a kon [2] of 332000 M⁻¹ s⁻¹.
